Source: patent publication US20220389394A1
Where two headings read alike, the source gives them in different places.

What was measured:
[1] = target: biotinylated recombinant human FcγRI protein (Sino Biological) (human) (UniProt P12314); assay: AlphaScreen competition; biotinylated FcγRI, competitor human IgG acceptor beads, 4PL fit
[2] = target: recombinant human FcRn (human) (UniProt P55899); assay: ELISA; recombinant human FcRn coated, serially diluted test article, anti-human (H+L)-HRP, 4PL fit
[3] = target: biotinylated recombinant human FcγRIIIa (Val 176 variant) protein (Sino Biological) (human) (UniProt P08637); assay: AlphaScreen competition; biotinylated FcγRIIIa (Val 176 variant), competitor human IgG acceptor beads, 4PL fit
biotinylated recombinant human FcγRIIIa (Val 176 variant) protein (Sino Biological) (human), sequence (P08637 other isoform, or with tags, fused parts or gaps mutant limits assumed): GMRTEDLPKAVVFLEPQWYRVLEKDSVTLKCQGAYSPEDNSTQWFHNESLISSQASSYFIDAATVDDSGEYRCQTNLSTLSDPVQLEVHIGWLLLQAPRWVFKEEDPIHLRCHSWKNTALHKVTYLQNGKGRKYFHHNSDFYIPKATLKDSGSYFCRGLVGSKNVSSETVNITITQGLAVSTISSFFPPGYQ

[4] = target: biotinylated recombinant human FcγRIIIa (Val 176 variant) protein (Sino Biological) (human) (UniProt P08637); assay: as above; remark: listed apart in the source
[5] = target: biotinylated recombinant human FcγRI protein (Sino Biological) (human) (UniProt P12314); assay: AlphaScreen competition; biotinylated FcγRI, competitor human IgG acceptor beads, 4PL fit; remark: listed apart in the source
[6] = target: recombinant human C1q protein (Fitzgerald) (human) (UniProt P02745); assay: ELISA; serially diluted test article immobilized, recombinant human C1q added, anti-C1q-HRP, 4PL fit
recombinant human C1q protein (Fitzgerald) (human), sequence (P02745 23-245 limits assumed, chain 1 of 3): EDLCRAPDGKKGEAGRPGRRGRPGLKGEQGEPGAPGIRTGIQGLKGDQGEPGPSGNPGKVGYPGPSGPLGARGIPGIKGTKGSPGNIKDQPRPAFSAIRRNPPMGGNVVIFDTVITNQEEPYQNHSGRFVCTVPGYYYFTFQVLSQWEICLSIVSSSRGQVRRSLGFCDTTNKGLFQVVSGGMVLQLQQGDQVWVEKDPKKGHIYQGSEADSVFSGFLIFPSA
recombinant human C1q protein (Fitzgerald) (human), sequence (P02746 28-253 limits assumed, chain 2 of 3, further chain): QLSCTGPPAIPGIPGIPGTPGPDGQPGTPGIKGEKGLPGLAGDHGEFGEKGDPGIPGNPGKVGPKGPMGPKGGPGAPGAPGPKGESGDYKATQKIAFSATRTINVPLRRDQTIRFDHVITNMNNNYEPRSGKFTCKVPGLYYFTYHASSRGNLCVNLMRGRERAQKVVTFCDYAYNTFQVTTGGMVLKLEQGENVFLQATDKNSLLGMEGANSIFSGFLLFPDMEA
recombinant human C1q protein (Fitzgerald) (human), sequence (P02747 29-245 limits assumed, chain 3 of 3, further chain): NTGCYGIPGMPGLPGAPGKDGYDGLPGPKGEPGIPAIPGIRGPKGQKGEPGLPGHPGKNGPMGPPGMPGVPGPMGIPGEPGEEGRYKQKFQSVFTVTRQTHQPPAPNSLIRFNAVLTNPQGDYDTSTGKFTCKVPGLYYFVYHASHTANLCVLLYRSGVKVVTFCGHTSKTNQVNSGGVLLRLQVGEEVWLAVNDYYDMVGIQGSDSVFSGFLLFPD

[7] = target: recombinant human C1q protein (Fitzgerald) (human) (UniProt P02745); assay: as above; remark: listed apart in the source
[8] = target: mouse FLT3 on the M1 cell line (mouse) (UniProt Q00342); assay: cell-based or functional assay
mouse FLT3 on the M1 cell line (mouse), sequence (Q00342 28-1000): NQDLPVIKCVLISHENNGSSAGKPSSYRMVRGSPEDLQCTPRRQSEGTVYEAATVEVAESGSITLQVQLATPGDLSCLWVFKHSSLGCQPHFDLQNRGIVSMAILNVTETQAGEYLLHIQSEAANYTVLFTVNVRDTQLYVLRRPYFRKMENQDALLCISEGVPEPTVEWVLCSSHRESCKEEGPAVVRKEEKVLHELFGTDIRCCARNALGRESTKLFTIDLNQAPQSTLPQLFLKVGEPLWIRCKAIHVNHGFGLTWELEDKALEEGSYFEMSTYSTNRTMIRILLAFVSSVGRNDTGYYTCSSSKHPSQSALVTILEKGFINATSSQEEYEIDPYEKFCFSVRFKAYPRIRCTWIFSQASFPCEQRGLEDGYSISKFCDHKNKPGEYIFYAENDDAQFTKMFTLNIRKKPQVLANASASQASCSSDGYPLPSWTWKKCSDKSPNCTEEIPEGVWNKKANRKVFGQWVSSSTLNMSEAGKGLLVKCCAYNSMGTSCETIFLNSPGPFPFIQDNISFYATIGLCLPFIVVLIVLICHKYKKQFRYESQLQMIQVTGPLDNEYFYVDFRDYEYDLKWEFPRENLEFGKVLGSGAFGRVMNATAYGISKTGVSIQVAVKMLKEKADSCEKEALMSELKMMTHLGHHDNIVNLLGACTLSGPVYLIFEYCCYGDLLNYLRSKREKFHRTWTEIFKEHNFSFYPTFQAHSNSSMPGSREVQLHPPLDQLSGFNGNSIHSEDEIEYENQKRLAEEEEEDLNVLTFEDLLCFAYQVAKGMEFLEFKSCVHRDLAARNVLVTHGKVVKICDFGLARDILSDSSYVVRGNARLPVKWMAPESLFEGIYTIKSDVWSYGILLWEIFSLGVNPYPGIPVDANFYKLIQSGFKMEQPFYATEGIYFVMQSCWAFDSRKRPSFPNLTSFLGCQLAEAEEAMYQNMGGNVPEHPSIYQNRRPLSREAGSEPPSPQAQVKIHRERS

[9] = target: human FLT3 on the AML5 cell line (human) (UniProt P36888); assay: cell-based or functional assay
human FLT3 on the AML5 cell line (human), sequence (P36888 27-993): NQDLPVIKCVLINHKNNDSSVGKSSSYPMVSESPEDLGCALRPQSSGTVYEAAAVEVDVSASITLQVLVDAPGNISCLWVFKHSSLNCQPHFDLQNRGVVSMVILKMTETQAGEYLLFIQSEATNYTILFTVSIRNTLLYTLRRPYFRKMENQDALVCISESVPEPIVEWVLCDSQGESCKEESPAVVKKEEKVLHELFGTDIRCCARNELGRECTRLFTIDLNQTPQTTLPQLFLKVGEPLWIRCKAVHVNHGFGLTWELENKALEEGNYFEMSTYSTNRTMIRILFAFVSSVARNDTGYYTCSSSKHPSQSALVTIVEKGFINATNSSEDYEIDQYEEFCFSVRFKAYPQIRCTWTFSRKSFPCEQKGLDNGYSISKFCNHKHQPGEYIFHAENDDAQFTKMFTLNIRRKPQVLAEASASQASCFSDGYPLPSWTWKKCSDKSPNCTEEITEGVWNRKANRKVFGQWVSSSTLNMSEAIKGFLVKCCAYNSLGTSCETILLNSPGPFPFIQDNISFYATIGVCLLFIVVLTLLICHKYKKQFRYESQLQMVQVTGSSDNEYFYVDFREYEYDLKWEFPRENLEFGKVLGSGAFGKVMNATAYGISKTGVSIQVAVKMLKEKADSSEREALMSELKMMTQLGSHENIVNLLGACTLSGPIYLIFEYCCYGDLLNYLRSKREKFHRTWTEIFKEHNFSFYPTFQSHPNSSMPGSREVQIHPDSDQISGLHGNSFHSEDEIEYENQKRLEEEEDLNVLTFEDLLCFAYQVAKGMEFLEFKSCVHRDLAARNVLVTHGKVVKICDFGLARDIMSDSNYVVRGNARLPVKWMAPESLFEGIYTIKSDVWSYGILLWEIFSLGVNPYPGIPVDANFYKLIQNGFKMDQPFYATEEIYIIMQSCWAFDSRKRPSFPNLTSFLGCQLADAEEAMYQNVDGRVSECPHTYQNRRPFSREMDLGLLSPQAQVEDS

biotinylated recombinant human FcγRI protein (Sino Biological) (human), sequence (P12314 16-288 limits assumed): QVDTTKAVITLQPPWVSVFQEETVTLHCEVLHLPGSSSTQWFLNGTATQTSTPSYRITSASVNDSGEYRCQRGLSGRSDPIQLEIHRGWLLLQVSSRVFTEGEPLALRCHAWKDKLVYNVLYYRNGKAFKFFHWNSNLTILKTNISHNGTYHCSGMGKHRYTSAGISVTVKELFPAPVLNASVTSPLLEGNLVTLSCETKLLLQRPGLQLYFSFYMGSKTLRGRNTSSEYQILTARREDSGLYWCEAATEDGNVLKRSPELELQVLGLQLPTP

| EC50 [1] [nM] | EC50 [2] [nM] | EC50 [3] [nM] | EC50 [4] [nM] | EC50 [5] [nM] | EC50 [6] [nM] | EC50 [7] [nM] | EC50 (nM), M1 IL-6 release assay [8] [nM] | Emax (pg/ml), M1 IL-6 release assay [8] [pg/mL] | EC50 (nM), AML5 proliferation [9] [nM] | Substance |
| --- | --- | --- | --- | --- | --- | --- | --- | --- | --- | --- |
| 5.25 | 4.46 | 32.1 | 38.8 | 4.44 | – | – | – | – | – | human IgG1 isotype antibody |
| 14.5 | 25.9 | 326 | 368 | 13.6 | 13.7 | 16.7 | – | – | – | human IgG4 isotype antibody |
| – | – | – | – | – | – | – | 0.024 | 392 | 0.039 | recombinant human FLT3-ligand (from UniProt P49771 27-185) |
| – | – | – | – | – | – | – | 0.117 | 517 | – | recombinant human FLT3-ligand human IgG1 fusion protein (Fc fusion) |
